Data as given in patent publication US8614103B2, “Compositions and methods for treating sphingosine-1-phosphate (S1P) related ocular diseases and conditions” (Lpath, Inc., priority 2006, dated 2013).

Assays:
[1] = system: macrophage and mast cell infiltration; assay: Murine infarct model, immune cell infiltration; assay type: in vivo, mouse; details: 25 mg/kg; four days post-MI
Experimental: SPHINGOMAB reduced immune-cell wound infiltration in vivo. Mice were subjected to MI, treated with saline or 25 mg/kg SPHINGOMAB 48 hr. after surgery and then sacrificed on day 4. SPHINGOMAB reduced macrophage (A) and mast cell (B) infiltration into the wound. Data are represented as fold decrease of saline-treated values.
Based upon the similarities of immune and inflammatory responses in CNV and CVD, the efficacy of SPHINGOMAB to mitigate immune cell infiltration into a wound was evaluated in a murine infarct model as an indication of SPHINGOMAB's potential effects in mitigating these damages during AMD [Vine, et al. (2005), Opthalmology, vol 112: 2076-80; and Seddon and Chen (2004), Int Opthalmol Clin, vol 44: 17-39]. Four days post-MI, macrophage and mast cell infiltration was evaluated using MAC-1 and MCG35 antibodies, respectively, within the area at risk.

[2] = system: endothelial cell (EC) infiltration; assay: In vivo Matrigel plug assay, S1P plugs, EC infiltration; design: species or system mouse; details: systemic administration every 48 hrs
Experimental: Based on in vivo studies showing that S1P increased endothelial capillary growth into subcutaneously implanted Matrigel plugs, we speculated that SPHINGOMAB could reduce de novo BV formation in vivo. To investigate this, we employed the in vivo Matrigel Plug assay for neovascularization. In one set of experiments, Matrigel was supplemented with either 1 μM S1P, 0.5 μg/mL bFGF or 1 μg/mL VEGF and then […]. into mice (n=4). After 10 days, the mice were heparinized and injected with the fluorescent lectin, Isolectin B4-FITC, which binds to adhesion molecules expressed by vascular EC that form the growing BVs. The plugs were then excised, frozen in OCT, sectioned and viewed for FITC-stained BVs.
Sections of the plugs were then stained with hemotoxyln & eosin for evaluation of EC infiltration (FIG. 6B). The infiltration of ECs is a critical step in neo-vascularization. […] Cell infiltration is presumed to be ECs although we recognize that other cell types such as immune cells may also be stained.

CNV lesions = assay: Murine laser-induced CNV model (Example 4); assay type: in vivo, mouse; details: 0.5 μg
Experimental: Female C57BL6/J mice were subjected to laser-induced rupture of Bruch's membrane and administered either 0.5 μg of Sphingomab or an isotype-matched non-specific (NS) antibody diluted in 2 μl of physiological saline. Mice were sacrificed 14 and 28 days after laser rupture.
To induce CNV lesions, the pupils were dilated with ophthalmic tropicamide (0.5%) and phenylephrine (2.5%). A coverslip was placed on the eye. An Oculight GL 532 nm (Iridex Corporation, Mountain View, Calif.) coupled to a slit lamp set to deliver a 100 msec pulse at 150 mW with a 50 μm spot size was used to rupture Bruch's membrane in three quadrants of the right eye located approximately 50 μm from the optic disc at relative 9, 12 and 3 o'clock positions. The left eye served as an uninjured control in all cases. Any lesion not associated with a vapor bubble or lesions that became confluent were excluded from analysis. […]
To assess collagen deposition, the sclera-choroid-RPE complex was stained with Masson's Trichrome. […] Approximately 30 sections per lesion were evaluated. Quantitation of the volume of collagen deposition was calculated in the same manner as described for CNV lesion volume.
Captured digital images were evaluated morphometrically using ImageJ software (Research Services Branch, National Institutes of Health, Bethesda, Md.).

[3] = system: ovarian cancer (OVCAR3) cells; assay: S1P-induced IL-8 release; assay type: cell-based, human; details: 1 uM S1P; 22 hours
Experimental: FIG. 12 has two panels, A and B, that show data from in vitro cell assays performed using several humanized monoclonal antibody variants. […] As described in Example 16, below, SKOV3 cells were treated for 48 hr. with 500 nM Taxol (Tax) in the presence or absence of 500 nM S1P with huMAbHCLC3 (309), huMAbHCLC5 (308), muMAb S1P (muMAb), or non-specific IgG1 (NS) at a concentration of 1 μg/mL. Values represent means±SEM (n=3) with triplicates run for each data point. “NT” means not treated, and “Veh” stans for vehicle only. […] In the experiments described in detail in Example 16, below, 100,000 OVCAR3 cells/well were starved overnight and 1 uM S1P was added to the culture media alone or pre-incubated with 1 ug/ml of non-specific antibody (NS), pATH201+pATH309 (LC3), pATH201+pATH308 (LC5), pATH207+pATH309 (cysLC3), pATH207+pATH308 (cysLC5), and 0.1 ug/ml (M0.1), 1 ug/ml (M1) or 10 ug/ml (M10) of anti-S1P murine antibody. After 22 hours of incubation, cell supernatants were collected and IL-8 secretion was measured by ELISA using an R&D system Quantikine human CXCL8/IL-8 kit. In the figure “NT” refers to non-treated cells.
In parallel, all the variants were tested for their effects on S1P-induced cytokine release from cancer cells. S1P is known to elicit significant release of IL-8 into the cell-conditioned media from cancer cells.

HUVECs = assay: HUVEC migration, Matrigel chemoinvasion assay; assay type: cell-based, human; details: co-incubation with S1P
Experimental: FIG. 5 has two panels, A and B. In panel A, S1P is shown to promote neovascularization through induction of HUVECs tube formation and migration, which is reduced by SPHINGOMAB. […] The number of cells that migrated to the Matrigel membrane were counted in five independent fields.
Experiments were performed as described by Visentin et al. (Cancer Cell 2006 March; 9(3):225-38).

B1: LT1002: murine monoclonal antibody to S1P, IgG1 kappa, hybridoma clone 306D326.26 (antibody, listed as Mus sp., V domains shown)
VH: QAHLQQSDAELVKPGASVKISCKVSGFIFIDHTIHWMKQRPEQGLEWIGCISPRHDITKYNEMFRGKATLTADKSSTTAYIQVNSLTFEDSAVYFCARGGFYGSTIWFDFWGQGTTLTVS
VL: ETTVTQSPASLSMAIGEKVTIRCITTTDIDDDMNWFQQKPGEPPNLLISEGNILRPGVPSRFSSSGYGTDFLFTIENMLSEDVADYYCLQSDNLPFTFGSGTKLEIK
density of inflammatory macrophages [1]: dramatically attenuated | density of mast cells [1]: dramatically attenuated | EC infiltration into S1P Matrigel plugs [2]: reduced amount of EC infiltration | choroidal neovascularization (CNV lesions; 14 and 28 days after laser-induced rupture of Bruch's membrane): dramatically attenuates | fibrosis associated with CNV lesion formation (CNV lesions; 28 days after laser rupture, Masson's Trichrome): significantly reduces | reduction of S1P-induced IL-8 release [3]: reduced IL-8 release from ovarian cancer cells in a concentration-dependent manner | effect on S1P-promoted HUVEC migration and BV formation (HUVECs): neutralize these effects of S1P
